Patent US11058644 (WISCONSIN ALUMNI RESEARCH FOUNDATION, dated 2021)

Biological target: T1, epidermal growth factor receptor (EGFR) (UniProt P00533 25-1210, limits assumed)
T1 construct: whole, on cells; Endogenous receptor on MDA-MB-468 cells
Test: blocking of Cy5-NP uptake on MDA-MB-468 cells by 2 uM free GE11, fluorescence microscopy
Description: Cellular Uptake. The cellular uptake behaviors of the NPs in MDA-MB-468 TNBC cell lines were analyzed using a fluorescence microscope based on the Cy5 dye conjugated on the NPs. Cells were seeded (1×10^5 cells/ml) onto 8-well high-optical-quality plates and grown overnight. Cells were treated with either non-targeted NPs, targeted NPs, or targeted NPs with free GE11 peptide (2 µM; blocking assay) at an NP concentration of 100 µg/ml. After 2 h incubation, cells were washed with PBS twice, fixed with 4% PFA, and stained with DAPI for 4 h. Then the cells were mounted with Prolong Gold anti-fade reagent. The cellular uptake was observed using a fluorescence microscope (Nikon, Melville, N.Y.). Digital monochromatic images were acquired using NIS-Elements BR Software.
In Vitro Cellular Uptake. EGFR is overexpressed in many common types of cancer. Here, an EGFR targeting peptide, GE11, was used as an active-tumor-targeting ligand to enhance cellular uptake. MDA-MB-468, a TNBC cell line that overexpresses EGFR, was used as the model cell line. Cells were incubated with either non-targeted (i.e., NPs without GE11 conjugation) or targeted (i.e., GE11 conjugated) NPs for 2 h. Cells without any treatment were used as a negative control. Cy5 was conjugated onto the NPs. Fluorescence imaging analysis was performed to compare cellular uptake. […]

B1: GE11 peptide (YHWYGYTPQNVIGGGGC) (peptide)
peptide: YHWYGYTPQNVIGGGGC
notes: also called free GE11; EGFR targeting peptide
binding result: binds
